Experimental data as given in patent US9745384B2, “Peptides useful for modulating histone demethylase function” (The Brigham and Women's Hospital, Inc., priority 2012, dated 2017).

Legend:
[1] = tested on: nucleosomes purified from HeLa; test: Nucleosome pulldown by GST-NPAC proteins; type: binding
Experimental: Nucleosomes were purified from HeLa as previously described (Umlauf et al., 2004). To examine nucleosome binding selectivity of NPAC, 5 μg GST fusion protein bound to glutathione agarose were incubated with 20 μg nucleosomes overnight at 4° C. in nucleosome binding buffer (50 mM NaPO4 pH 7.4, 200 mM NaCl, 0.5% NP-40, 5% glycerol, 10 μM ZnSO4, 1 mM MgCl2, 1 mM DTT, 0.1 mM PMSF). After washing 4 times with the same buffer at 4° C., the beads were boiled in 1×SDS sample loading buffer and elute was resolved by 15% SDS-PAGE for immunoblot analysis or coomassie staining.
For free-DNA competition assays, human genomic DNA was purified from HeLa cells and fragmented to an average size around 300 bp by sonication. Equal amounts of GST-NPAC.d5 bound to glutathione beads were pre-incubated with 0, 5, 10, 25 μg genomic DNA fragments in nucleosome binding buffer for 30 minutes at room temperature, and equal amounts of nucleosomes were added and incubated overnight at 4° C. After extensive washing, GST-NPAC.d5 and bound nucleosomes were eluted by boiling in 1×SDS sample loading buffer, resolved by SDS-PAGE and stained with coomassie blue.

LSD1 = LSD1 (Homo sapiens, UniProt O60341); test: LSD1-mediated nucleosome demethylation assay; type: biochemical; details: 2 μg LSD1 with 5 μg cofactor protein
Experimental: FIG. 7A depicts the determination of the threshold dosage of purified LSD2 required for nucleosomal H3K4 demethylation. 2 μg of nucleosomes purified from HeLa were incubated with various amount of His-LSD2 proteins for 2 hours at 30° C. The demethylation reactions were analyzed by immunoblotting using indicated antibodies. […] 2 μg LSD1 in combination with 5 μg purified NPAC or CoREST protein was used for histone demethylase assays. […] Transfected cells are marked by arrows; cells shown significant reduction of H3K4me1 are marked by dotted circles. […] In contrast, coexpression of LSD2 and NPAC induces obvious global decrease of H3K4me1. […] FIG. 7D depicts immunofluorescence analyses of H3K9me2 demethylation in cells coexpressing LSD2 and full-length NPAC.

LSD2 = molecular target: T1, LSD2 (Homo sapiens, UniProt Q8NB78); test: H3K4me2 peptide demethylation assay (MALDI-TOF); type: biochemical; details: shorter H3K4me2 peptide residues 1-15
T1 construct: 0.15 μM or 1.2 μM purified LSD2 (residues 51-822); His6 (cleaved yes); made in house; host or cells: Sf9 insect cells (baculovirus)
T1 sequence (Q8NB78 51-822): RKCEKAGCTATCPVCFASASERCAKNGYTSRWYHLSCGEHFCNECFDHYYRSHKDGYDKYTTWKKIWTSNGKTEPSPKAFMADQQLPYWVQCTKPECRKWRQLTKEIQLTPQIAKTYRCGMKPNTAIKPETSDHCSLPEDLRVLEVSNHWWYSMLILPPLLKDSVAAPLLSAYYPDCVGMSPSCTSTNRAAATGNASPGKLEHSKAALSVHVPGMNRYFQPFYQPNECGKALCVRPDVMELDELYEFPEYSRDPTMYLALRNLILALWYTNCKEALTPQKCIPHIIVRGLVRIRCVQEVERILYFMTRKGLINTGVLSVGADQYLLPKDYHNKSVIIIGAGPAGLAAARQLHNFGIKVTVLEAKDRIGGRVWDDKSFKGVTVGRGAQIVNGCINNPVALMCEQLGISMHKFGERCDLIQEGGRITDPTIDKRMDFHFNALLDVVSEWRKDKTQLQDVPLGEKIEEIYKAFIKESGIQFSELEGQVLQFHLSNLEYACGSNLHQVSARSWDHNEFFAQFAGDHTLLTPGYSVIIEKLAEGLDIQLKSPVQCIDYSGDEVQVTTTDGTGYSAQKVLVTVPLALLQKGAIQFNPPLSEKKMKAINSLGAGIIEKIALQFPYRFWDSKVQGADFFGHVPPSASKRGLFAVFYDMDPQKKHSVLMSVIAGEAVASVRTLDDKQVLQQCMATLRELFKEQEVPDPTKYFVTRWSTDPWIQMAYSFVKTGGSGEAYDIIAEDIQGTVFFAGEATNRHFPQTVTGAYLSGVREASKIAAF
Experimental: FIGS. 12A-12F depict analysis of LSD2 demethylation activity and mutational analysis. […] Demethylation products were analyzed by MALDI-TOF mass spectrometry. 0.15 μM LSD2 can efficiently demethylate the longer H3K4me2 peptide (1-21), but has no detectable activity on the shorter histone peptide (1-15), demethylation of which requires high concentration (1.2 μM) of LSD2. […] It indicates the importance of histone residue 16-21 to LSD2 enzymatic activity and NPAC cofactor activity, supporting our model that NPAC assists enzyme-substrate interactions by creating a new binding site for H3 L20 in the LSD2-NPAC complex. FIG. 12C depicts LSD2 demethylation and NPAC cofactor activity on longer H3K4me2 peptide (1-44). 2 μg H3K4me2 peptide (1-44) were incubated with 0.8 μg GST-LSD2 (1-822) and 2 μg wild-type or F217A full-length GST-NPAC proteins in 100 μl demethylation buffer (50 mM Tris-HCl pH 8.1, 1 mM NAD^+, 0.1 Unit formaldehyde dehydrogenase) at 30° C. for 2 hours. LSD2 alone can efficiently demethylate di-methyl H3K4 of the long peptides, converting large majority of the substrate to H3K4me1. Wild-type NPAC protein can efficiently stimulate LSD2 demethylation, producing unmethylated H3K4. F217A mutation impairs NPAC cofactor activity as expected, showing little stimulatory effect if any. To compare demethylation efficiency, 1.2 μg bio-H3K4me2 peptide (H3 residue 1-21, equal molar ratio to 2 ug H3K4me2 1-44 peptide in above assays) was demethylated by LSD2 under identical conditions (bottom panel). […] The cofactor activity of wild-type NPAC was readily detected under the same conditions. […] Importantly, the demethylation of nucleosomal H3K4me2 was much more efficient in the presence of wild-type NPAC under same conditions (comparing lane 3 verse 4, and 8 verse 9). It is noted that no obvious cofactor effect of F217A peptide or linker regions was detected in nucleosome and peptide demethylation assays (FIG. 6E and data not shown). FIG. 12F depicts Coomassie staining of NPAC proteins used in histone demethylase assays. FIG. 12F discloses “His6” as SEQ ID NO: 75.
Histone peptides are purchased from Millipore, or custom synthesized. The purity of all peptides are >95% as determined by HPLC and mass spectrometry. In vitro histone demethylase activity assays were performed as described (Shi et al., 2004). Briefly, purified LSD2 and NPAC derived peptides or proteins were incubated with 50 μM H3K4me2 peptides (residues 1-21) in 50 mM Tris-HCl, pH 8.5, 50 mM KCl, 5 mM MgCl2, 5% glycerol at 37° C. for 30 min. The products were desalted through a C18 Ziptip (Millipore) and analyzed on a MALDI-TOF micro MX mass spectrometer (ABI 4700, Applied Biosystems). The laser intensity was kept constant for all of the samples. All MS data were processed using Data Explorer 4.5 (Applied Biosystems). […]

Nucleosome binding (GST-pulldown) [1]: binds strongly with purified nucleosomes | Cofactor activity: stimulation of LSD2 demethylation of H3K4me2 peptide (LSD2): did not detect NPAC cofactor activity
B1: NPAC: full-length human NPAC/GLYR1 (protein ID: Q49A26), recombinant, LSD2 cofactor (protein)
chain: MAAVSLRLGDLVWGKLGRYPPWPGKIVNPPKDLKKPRGKKCFFVKFFGTEDHAWIKVEQLKPYHAHKEEMIKINKGKRFQQAVDAVEEFLRRAKGKDQTSSHNSSDDKNRRNSSEERSRPNSGDEKRKLSLSEGKVKKNMGEGKKRVSSGSSERGSKSPLKRAQEQSPRKRGRPPKDEKDLTIPESSTVKGMMAGPMAAFKWQPTASEPVKDADPHFHHFLLSQTEKPAVCYQAITKKLKICEEETGSTSIQAADSTAVNGSITPTDKKIGFLGLGLMGSGIVSNLLKMGHTVTVWNRTAEKCDLFIQEGARLGRTPAEVVSTCDITFACVSDPKAAKDLVLGPSGVLQGIRPGKCYVDMSTVDADTVTELAQVIVSRGGRFLEAPVSGNQQLSNDGMLVILAAGDRGLYEDCSSCFQAMGKTSFFLGEVGNAAKMMLIVNMVQGSFMATIAEGLTLAHVTGQSQQTLLDILNQGQLASIFLDQKCQNILQGNFKPDFYLKYIQKDLRLAIALGDAVNHPTPMAAAANEVYKRAKALDQSDNDMSAVYRAYIH
Stimulation of LSD1 nucleosome demethylation (LSD1): no stimulatory effect on nucleosome demethylation by LSD1
